Experimental data taken from US20240336683A1 (published 2024).

T1: full-length human Siglec15 with C-terminal flag and Myc tags on HEK293 cells (human, UniProt Q6ZMC9 20-328)
T1 construct: whole, on cells; also called Siglec15/HEK293; HEK293-Siglec 15; not shown: C-terminal flag and Myc tags from pCMV6-Entry vector
T1 sequence (looked up): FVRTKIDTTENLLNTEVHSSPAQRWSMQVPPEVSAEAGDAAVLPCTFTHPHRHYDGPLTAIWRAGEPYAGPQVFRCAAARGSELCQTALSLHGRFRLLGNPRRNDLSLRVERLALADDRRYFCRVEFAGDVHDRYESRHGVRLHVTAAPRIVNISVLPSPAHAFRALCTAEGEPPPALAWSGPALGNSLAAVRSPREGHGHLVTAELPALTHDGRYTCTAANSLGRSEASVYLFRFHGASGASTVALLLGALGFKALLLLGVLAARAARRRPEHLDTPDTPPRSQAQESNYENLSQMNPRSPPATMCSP

T2: human Siglec15-Fc fusion protein (human, UniProt Q6ZMC9 20-263)
T2 construct: Bought protein (Acro #SG5-H5253 is named for the selection); also called recombinant Siglec 15-Fc fusion protein (Acro #SG5-H5253); human Siglec15-Fc protein; not shown: Fc part of the bought fusion protein
T2 sequence (looked up): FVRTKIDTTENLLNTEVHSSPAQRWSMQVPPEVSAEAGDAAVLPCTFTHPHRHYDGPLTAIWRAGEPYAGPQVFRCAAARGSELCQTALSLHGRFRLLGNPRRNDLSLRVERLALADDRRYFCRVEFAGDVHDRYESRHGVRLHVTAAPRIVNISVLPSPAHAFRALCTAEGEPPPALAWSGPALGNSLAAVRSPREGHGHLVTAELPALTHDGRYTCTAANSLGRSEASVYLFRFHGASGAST

B1: 2020EP083-H01 scFv (scFv, V domains shown)
VH: QLQLQESGPGLVKPAETLSLTCTVSGGSVSSGDNLWDWIRQPPGKGLEWIGSIRDSGNPAYNPSLRSRVTISADTSTDQFSLKLTSVTAADTAVYYCARHSDGGYGKIYGMDVWGQGTTVTVSS
VL: DIQLTQSPSFLSASVGDRVTITCRASQAVSTYLVWYLQKPGQAPRLLIYAASTLQSGVPSRFSGSGSGTDFTLTISRLQPEDAGTYFCQQLNSNALVFGGGTKVDIK
notes: Tested as a single-chain scFv made in E. coli with a C-terminal flag and 6x His tag
B2: 2020EP032-A12 scFv (scFv, V domains shown)
VH: QMQLVQSGGGVVQPGRSLRLSCAASGFTFSSYGMHWVRQAPGKGLEWVAVISDDGSNKYYADSVKGRFTISRDNSKNTLYLQMNSLRAEDTAVYYCAKKDVATILFDNWGQGTLVTVSS
VL: VIWMTQSPSTLSASVGDRVTITCRASQSITRWLAWYQQKPGKAPKLLIYKTSDLDGGVPSRFSGSESGAEFTLTISSLQPDDVATYFCQHYNTRSWTFGQGTKVELK
notes: as for B1
B3: 2020EP032-C09 scFv (scFv, V domains shown)
VH: QVQLVESGGGLVKPGGSLRLSCAASGFSFNNAWMSWVRQAPGKGLEWVGRIKSKTDDATTEYAAPVEGRFTISRDDSKNMLYLQMDSLKTEDTAVYYCTTDLRWEELPMYWGQGTLVTVSS
VL: VIWMTQSPSSLSASVGDRVTITCRASQGIRNDLGWYQQKPGKAPKVLIYAASSLQSGVPSRFSGSGSGTDFTLTISSLQPEDFATYYCLQDYNYPQTFGQGTKVGIKR
notes: as for B1
B4: 2020EP032-B03 scFv (scFv, V domains shown)
VH: QVQLQQWGAGLLKPSETLSLTCAVYGGSFSGYYWSWIRQPPGKGLEWIGEINHSGSTNYNPSLKSRVTISVDTSKNQFSLKLSSVTAADTAVYYCARGPLRKYYDFWSGSRNYYYYGMDVWGQGTTVTVSS
VL: QPVLTQDPAVSVALGQTVRITCQGDSLRSNYASWYQLKPGQAPVLVIYDKNNRPSGIPDRFSGSNSGNTASLTIAGAQAEDEADYYCTSRDSSGTVFGGGTKLTVL
notes: as for B1
B5: 2019EP47-A05 scFv (scFv, V domains shown)
VH: QMQLVQSGAEVKKPGSSVKVSCKASGGTFSSYAISWVRQAPGQGLEWMGRIIPILGIANYAQKFQGRVTITADKSTSTAYMELSSLRSEDTAVYYCAVNTYYYDSSGYYYEYFDYWGQGTLVTVSS
VL: EIVLTQSPSSLSASVGDRVTITCQASQHINNHLNWYQQKPGKGPKLLIYDVSNLEAGVPSRFSASGSGTDFSFTISSLQPEDFATYYCQQYDSLPLTFGQGTKVEVK
notes: as for B1
B6: 2020EP032-H11 scFv (scFv, V domains shown)
VH: EVQLVESGGGLVKPGGSLRLSCAASGFTFSSYSMNWVRQAPGKGLEWVSSISSSSSYIYYADSVKGRFTISRDNAKNSLYLQMNSLRAEDTAVYYCARDYRGYSGQNYYGMDVWGQGTTVTVSS
VL: QSALTQPPSVSAAPRQKVTISCSGSSSNIGNNDVSWYQQLPGTVPKLLIYDNNKRPSGIPDRFSGSKSGTSASLGITGLQTGDEADYYCGVWDSSLSGYVFGTGTKVTVL
notes: as for B1
B7: 2020EP083-G11 scFv (scFv, V domains shown)
VH: EVQLVESGGGLVEPGGSLRLSCAASGFTFSSYSMSWVRQAPGKGLEWVGRIKSETDGGTTDYAGPAKGKFIISRNDAENTVSLQMNSLKFEDTAVYHCTTDSSSSWFSYSFDNWGQETLVTVSS
VL: EIVMTQSPATLSVSPGERATLSCRASQNVNSNLAWYQQKTGQAPRLLIFGASTRATGIPARFSGSGSGTEFTLTIGSLQSEDFAVYYCQQYNNWPPTFGGWTKVEIK
notes: as for B1
B8: 2019EP47-A10 scFv (scFv, V domains shown)
VH: QMQLVQSGGGVVQPGRSLRLSCAASGFTFSSYGMHWVRQAPGKGLEWVAVISYDGSNKYYADSVKDRFTISRDNSKNTLYLQMNSLRAEDTAVYYCAKDIVGDSGSYPIYYYYGMDVWGQGTTVTVSS
VL: SQSALTQPHSVSESPGKTVTISCTRSSGSIASNYVQWYQQRPGSAPSTVIYEDNQRPSGVPDRFSGSVDISSNSASLTISGLQTEDEADYYCQSYDNDNMVFGGGTKLTVL
notes: as for B1
B9: 2019EP47-C12 scFv (scFv, V domains shown)
VH: EVQLVESGGGLEKPGRSLRLSCTASGFTFGDYAMSWFRQAPGKGLEWVGFITTKPYGGTTEYAASVKGRFTISRDDSKSIAYLQMNSLKTEDTAEYYCTKDSEAYYGSGSYMVGYWGQGTLVTVSS
VL: QSVLTQPPSVSLAPGKTATITCGGDNIENKDVHWYQQKPGQAPVLVIRFAADRPSGIPERFSGSSSGNTATLTISRVEAGDEADYYCQVWQSTRDHPVVVFGGGTKLTVL
notes: as for B1
B10: 2019EP47-A02 scFv (scFv, V domains shown)
VH: EVQLVQSGGGVVQPGRSLRLSCAASGFTFSSYAMHWVRQAPGKGLEWVAVISYDGSNKYYADSVKGRFTISRDNSKNTLYLQMNSLRAEDTAVYYCARSRYSSSLRRYYGMDVWGQGTTVTVSS
VL: AIQLTQSPSSLSASVGDRVTITCQATHDIANYLNWYQQKPGKAPKLLIYAASNLETGVPSRFSGSGSGTDFTFAISSLQPEDIAVYYCQQYDNLPLTFGGGTKVEIK
notes: as for B1
B11: 2020EP032-A08 scFv (scFv, V domains shown)
VH: QVQLQQWGAGLLKPSETLSLTCAVYGGSFSGYYWSWIRQPPGKGLEWIGEINHSGSTNYNPSLKSRVTISVDTSKNQFSLKLSSVTAADTAVYYCARGVYYYDSSGPRDYFDYWGQGTLVTVSS
VL: DIVMTQSPSSLSASVGDRVTITCQASQDISNYLNWYQQKPGKAPKLLIYDASNLKTGVPSRFSGSGSGTDFTFTITSLQPEDIGTYFCQQYGNLPYTFGQGTKLEIK
notes: as for B1
B12: 2020EP085-G5 scFv (scFv, V domains shown)
VH: QVQLVQSGAEVKKPGASVKVSCKASGYTFTDYYMHWVRQAPGQGLEWMGWINPNSGGTNYAQKFQGRVTMTRDTSITTAYMELSWLRSDDTAVYYCAREVGTTTTGVDYWGQGTLVTVSS
VL: VIWMTQSPSSLSASVGDRVTFTCQASQDINIYLTWYQIKPGKAPKVLIYDASTLESGVPSRFSGSGFGTHFVFTISSLQPEDFATYYCQHYDSLPLTFGGGTKVEIK
notes: as for B1

Columns and labels:
[1] = target: T1, full-length human Siglec15 with …; assay: FACS on Siglec15/HEK293 cells, scFv, anti-His detection
Procedure: […] Cells were spun down at 1200 rpm for 5 minutes at 4° C. to remove primary antibodies. Cells were then washed once with 200 uL of full medium per well. Samples were detected with premixed anti-His Biotin Streptavidin Alexa fluor 647 by adding 100 uL of diluted secondary antibody and incubated at 4° C. for 30 minutes in the dark. Samples were spun down at 1200 rpm for 5 minutes at 4° C. and washed twice with 200 uL of 1×PBS per well. Samples were then reconstituted in 200 uL of 1×PBS and read on Attune NxT cytometer. Analysis was performed using Attune NxT software plotting the overlaying the histogram of anti-Siglec15 scFvs binding onto both negative and target cell lines.

[2] = target: T2, human Siglec15-Fc fusion protein; assay: ELISA; Siglec15-Fc captured by anti-hFc, scFv titrated, anti-Flag HRP
Procedure: An ELISA assay was developed to determine the EC50 of anti-Siglec15 antibodies. Briefly, a 384 well plate was immobilized with anti-human Fc antibody at final concentration of 2 ug/mL in 1×PBS in total volume of 25 uL per well. The plate was incubated overnight at 4° C. followed by blocking with 80 uL of superblock per well for 1 hour. Human Siglec 15-Fc was captured through immobilized anti-hFc antibody. Purified anti-Siglec 15 scFvs were 2-fold serial titrated from 200 nM. 25 uL was added to human Siglec15 immobilized wells and incubated for 1 hour with shaking. The Siglec15 binding was detected by adding 25 uL of anti-Flag HRP diluted at 1:5000 in 1×PBST. In between each step, the plate was washed 3 times with 1×PBST in a plate washer. The plate was then developed with 20 uL of TMB substrate for 5 mins and stopped by adding 20 uL of 2 N sulfuric acid. The plate was read at OD450 nm Biotek plate reader and then plotted in Prism 8.1 software.

[3] = target: T2, human Siglec15-Fc fusion protein; assay: SPR Biacore T200; Siglec15-Fc captured on Protein A chip, scFv as analyte
Procedure: Kinetic analysis of anti-Siglec15 scFvs were assessed by SPR technology with Biacore T200. The assay was run with Biacore T200 control software version 2.0. Protein A sensor chip was used to capture Fc fusion protein in the assay. For each cycle, 1 ug/mL of human Siglec15-Fc protein was captured for 60 seconds at flow rate of 10 ul/min on flow cell 2 in 1× HBSP buffer on Protein A sensor chip. 2-fold serial diluted HIS tag purified anti-Siglec15 scFv was injected onto both reference flow cell 1 and Siglec 15-Fc captured flow cell 2 for 150 seconds at flow rate of 30 ul/min followed by wash for 300 seconds. The flow cells were then regenerated with Glycine pH 2 buffer (GE) for 30 seconds at flow rate of 30 ul/mins. 8 concentration points from 300-0 nM was assayed per anti-Siglec15 scFv in a 96 well plate. The kinetics of scFvs binding to Siglec 15 protein was analyzed with Biacore T200 evaluation software version 3.0. The specific binding response unit was derived from subtraction of binding to reference flow cell 1 from Siglec15 captured flow cell 2.

Binder	EC50 [1] [nM]	EC50 [2] [nM]	Kd [3] [nM]	koff [3] [s⁻¹]	kon [3] [M⁻¹ s⁻¹]
B1	0.23	2.54	10.4	0.00149	143000
B2	0.86	0.544	2.26	0.000294	130000
B3	0.65	6.07	25.1	0.00169	67600
B4	1.22	1.78	2.11	0.000282	134000
B5	88.3	3.35	2.79	7.77e-05	27900
B6	10.6	0.567	0.557	0.000316	567000
B7	0.87	1.29	1.12	0.000356	318000
B8	112	2.5	3.32	6.02e-05	18200
B9	13.1	9.97			
B10	10.6	21.9	58.8	0.00149	28700
B11	1.6	5.87	18.1	0.000842	46400
B12	1	3.3	10.9	0.00144	132000
